The values that follow come from US20230220098A1, “THERAPEUTIC DRUG FOR POLYCYTHEMIA” (PERSEUS PROTEOMICS INC., priority 2019, published 2023).

One experiment concerns the target T1, Tf-TfR binding (Homo sapiens, UniProt P02786).
T1 construct: A human TfR extracellular domain (the amino acids at positions 89 to 760); made in house; host or cells: Expi293 cells
Description: Tf-TfR binding inhibition ELISA (HRP-labeled Tf on solid-phase sTfR). Particulars: dose 100 ng/mL; FIG. 3. The method, then: The Tf-TfR binding inhibitory activity of an antibody can be measured according to the method described in the after-mentioned “Example 2(2): Comparison between TfR436 antibody and antibodies of other companies in terms of Tf-TfR binding inhibition.” A TfR solution is dispensed into a substrate (a 96-well plate, etc.) and is then left at rest to obtain a solid phase, and thereafter, blocking is carried out. Subsequently, an HRP-labeled Tf solution is dispensed into the substrate, and an antibody is further added thereto, so that they are allowed to react with each other at room temperature. Thereafter, the substrate is washed, and a coloring reagent (TMB, etc.) is then added thereto, so that they are allowed to react with each other. After that, the absorbance is measured using a plate reader. By performing the above-described operations, the Tf-TfR binding inhibitory activity of the antibody can be evaluated.
The sTfR described in Example 1 was adjusted to a concentration of 5.0 μg/mL by addition of PBST, and the diluted solution was then dispensed into MaxiSorp 96-well plate (Nunc) in an amount of 100 μL/well. Thereafter, it was left at rest at 4° C. overnight to obtain a solid phase. […] Thereafter, the absorbance at 450 nm (ref. 620 nm) was measured.

For experiment [1], the target named is T2, soluble wild-type TfR (sTfR) and TfR mutant fragments (MF1 to MF7) (Homo sapiens, UniProt P02786).
T2 construct: A human TfR extracellular domain (the amino acids at positions 89 to 760); made in house; host or cells: Expi293 cells
T2 sequence (P02786 89-760, change not shown): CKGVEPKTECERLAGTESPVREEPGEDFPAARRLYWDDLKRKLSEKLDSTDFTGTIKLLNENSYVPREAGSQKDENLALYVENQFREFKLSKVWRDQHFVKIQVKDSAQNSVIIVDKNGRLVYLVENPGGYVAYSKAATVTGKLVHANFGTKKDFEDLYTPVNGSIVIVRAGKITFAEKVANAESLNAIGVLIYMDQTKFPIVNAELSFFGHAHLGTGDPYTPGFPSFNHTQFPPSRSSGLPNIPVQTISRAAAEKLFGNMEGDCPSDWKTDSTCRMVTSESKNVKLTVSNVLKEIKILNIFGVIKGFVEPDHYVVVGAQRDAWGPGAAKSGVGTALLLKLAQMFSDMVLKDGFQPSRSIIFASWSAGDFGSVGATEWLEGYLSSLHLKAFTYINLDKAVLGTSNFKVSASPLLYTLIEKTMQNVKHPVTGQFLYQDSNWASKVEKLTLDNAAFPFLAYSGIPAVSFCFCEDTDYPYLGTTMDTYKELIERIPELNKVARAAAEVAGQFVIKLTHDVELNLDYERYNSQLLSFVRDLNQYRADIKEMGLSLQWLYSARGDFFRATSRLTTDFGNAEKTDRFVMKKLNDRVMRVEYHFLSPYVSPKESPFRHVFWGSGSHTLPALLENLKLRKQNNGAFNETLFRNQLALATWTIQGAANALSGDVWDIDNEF
Nature of the experiment: ELISA reactivity with soluble wild-type TfR and TfR mutant fragments (binding site identification). Particulars: suggested from mutant fragment reactivity. The method, then: (§1) A neomycin resistance gene and a DHFR gene were incorporated into the expression vector pCAGGS (Non-Patent Document 2: Niwa et al. 1991), and thereafter, the synthesized genes were each inserted into the multicloning site of the obtained expression vector, so as to produce a pCAGGS-Neo-DHFR-sTFR-myc-his expression plasmid. Using Expifectamine (Invitrogen), the Expi293 cells (Invitrogen) were transfected with the above-described plasmid, and were then cultured at 37° C. in 8% CO2 at 135 rpm for 5 days. Thereafter, a culture supernatant was recovered by centrifugation. A HisTrapHP (GE Healthcare) column was connected with AKTA prime (GE Healthcare), and sTfR or MF1 to MF7 were then purified using 20 mM Imidazole/DPBS as a binding buffer and 500 mM Imidazole/DPBS as an elution buffer. The eluted protein was subjected to buffer exchange with 30 mM HEPES, 5% trehalose, pH 7.2, by using a Zeba spin column (Thermo scientific).
(§2) The thus purified sTfR or MF1 to MF7 were diluted with PBST (Phosphate Buffered Saline with Tween 20, TaKaRa), and the diluted solutions were prepared at 7 stages by 3-fold dilution from 600 ng/mL. […] Thereafter, the absorbance at 450 nm (ref. 620 nm) was measured using a plate reader.
In general terms: ELISA stands for enzyme-linked immunosorbent assay.

In experiment [2] the test system is soluble wild-type TfR (sTfR) and TfR mutant fragments (MF1 to MF7). Described as above. On the set-up: species or system human. To be noted: TfR436 1 ug/mL; MF5 (positions 629, 630 and 633 substituted); FIG. 2. The method, then: as §1, §2
For a further experiment, the target named is hamster TfR (Cricetulus griseus, UniProt Q07891). Nature of the experiment: Cross-reactivity of TfR436 antibody with hamster TfR. Type of experiment: binding.
Sequence of hamster TfR (Q07891 whole entry): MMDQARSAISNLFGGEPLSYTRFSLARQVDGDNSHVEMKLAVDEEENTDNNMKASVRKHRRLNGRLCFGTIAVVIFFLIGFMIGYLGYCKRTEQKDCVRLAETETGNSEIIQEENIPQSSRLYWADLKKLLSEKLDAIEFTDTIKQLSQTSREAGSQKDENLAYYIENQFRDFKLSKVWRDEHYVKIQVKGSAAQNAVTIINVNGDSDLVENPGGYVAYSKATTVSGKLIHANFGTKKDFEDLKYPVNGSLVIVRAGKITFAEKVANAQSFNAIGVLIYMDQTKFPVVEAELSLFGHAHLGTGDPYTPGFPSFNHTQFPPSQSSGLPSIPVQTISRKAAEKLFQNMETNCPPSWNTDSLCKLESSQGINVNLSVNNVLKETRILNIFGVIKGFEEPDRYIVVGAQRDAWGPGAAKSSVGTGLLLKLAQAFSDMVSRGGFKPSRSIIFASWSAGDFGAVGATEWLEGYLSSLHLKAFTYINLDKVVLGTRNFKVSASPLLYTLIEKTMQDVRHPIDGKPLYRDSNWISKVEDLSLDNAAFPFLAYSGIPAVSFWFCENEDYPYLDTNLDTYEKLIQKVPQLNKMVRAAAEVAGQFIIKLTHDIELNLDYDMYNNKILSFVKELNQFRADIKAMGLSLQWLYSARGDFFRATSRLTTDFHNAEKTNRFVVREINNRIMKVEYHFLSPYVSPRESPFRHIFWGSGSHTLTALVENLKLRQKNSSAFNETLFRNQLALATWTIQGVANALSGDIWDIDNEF

T1 sequence (P02786 89-760): as the sequence (P02786 89-760, change not shown) above

B1: TfR436: anti-human transferrin receptor antibody, VH SEQ ID NO: 7 and VL SEQ ID NO: 8, described in WO2014/073641; called PPMX-T003 in Tables 3 and 4 (antibody, listed as Homo sapiens, V domains shown)
VH: DVQLVQSGGGVVQPGRSLRLSCAASGFPFKSYGMHWVRQAPGKGLEWVAVISYDGSNKYYADSVKGRFTISRDNSKNTLYLQMNSLRGEDTAVYYCARDSNFWSGYYSPVDVWGQGTTVTVSS
VL: NFMLTQPHSVSESPGKTVTISCTRSSGSIASNSVQWYQQRPGSAPITVIYEDTQRPSGVPDRFSGSIDSSSNSASLTISGLQTEDEADYYCQSYDSAYHWVFGGGTKLAVL
Consider B1, for which the “inhibition of the binding of Tf-TfR” value in the experiment with Tf-TfR binding is listed as “completely inhibited”. Moreover, the epitope recognized entry in experiment [1] was “amino acids at positions 629 to 633 of TfR”. Further, the “reactivity with TfR mutant fragment MF5” value in experiment [2] was “a reduction in the reactivity”. Besides, the “cross-reactivity with hamster TfR” value with hamster TfR is given as “exhibited cross-reactivity”.
